Here are results for 6 molecules from paper PMC6160459, “Identification of Peptide Mimotope Ligands for Natalizumab” (Scientific Reports, 2018).

The target in one assay is Natalizumab. Briefly: peptide array variant scan, natalizumab binding in arbitrary ELISA units. As to conditions: chain shown with the change;, read off a plot. A general note: ELISA stands for enzyme-linked immunosorbent assay.
Assay [1] has as its target Ntz-07 synthetic peptide. Briefly: BLI; Octet Red96; 10 µg/ml peptide immobilised on a streptavidin sensor; natalizumab in solution 1-600 nM, three-fold dilutions; TBS; apparent affinity.
A further assay addresses Ntz-05 synthetic peptide. The description is as above.
The target of a further assay is Ntz-01 synthetic peptide. The description is as above.
The target in the next assay is Ntz-02 synthetic peptide. Described as above.
The next assay concerns the target Ntz-04 synthetic peptide. Described as above.
In assay [2] the target is Ntz-06 synthetic peptide. The description is as above.
In the next assay the target is Ntz-03 synthetic peptide. The description is as above.
For assay [3], the target named is Ntz-07 synthetic peptide. Put plainly: ELISA; Protocol-2: biotinylated peptide at 1 µg/ml in TBS on streptavidin-coated wells; natalizumab in 2.5% BSA/1X casein/TBST (or diluted human serum) 1 h at RT; detected with anti-IgG4-HRP; apparent affinity.
The target in assay [4] is Ntz-06 synthetic peptide. The assay is described as above.

With ACPRNESKFC [Ntz-01 parent peptide on the Pepscan array H4R], the response with Natalizumab (parent: est. 1100) stood at 2400 mAU.

B1: Natalizumab (antibody, V domains shown)
VH: QVQLVQSGAEVKKPGASVKVSCKASGFNIKDTYIHWVRQAPGQRLEWMGRIDPANGYTKYDPKFQGRVTITADTSASTAYMELSSLRSEDTAVYYCAREGYYGNYGVYAMDYWGQGTLVTVSS
VL: DIQMTQSPSSLSASVGDRVTITCKTSQDINKYMAWYQQTPGKAPRLLIHYTSALQPGIPSRFSGSGSGRDYTFTISSLQPEDIATYYCLQYDNLWTFGQGTKVEIK
As for B1, the Kd with Ntz-07 synthetic peptide [1] came out at 3.24 nM; with Ntz-05 synthetic peptide, 10.5 nM; with Ntz-01 synthetic peptide it was 29.1 nM; in the assay with Ntz-02 synthetic peptide it was 32.1 nM; with Ntz-04 synthetic peptide, 6.03 nM; with Ntz-06 synthetic peptide [2] it was 6.87 nM. For the same molecule, the Kd with Ntz-03 synthetic peptide was 31.4 nM. The fold improvement of apparent affinity over Ntz-02 with Ntz-07 synthetic peptide [3] amounted to 6.2 fold. For the same molecule, the fold improvement of apparent affinity over Ntz-03 with Ntz-07 synthetic peptide [3] is 14 fold. In the assay with Ntz-06 synthetic peptide [4], the fold improvement of apparent affinity over Ntz-01 stood at 1.7 fold.
With ACPQNPSKFC [Ntz-02 parent peptide on the Pepscan array S4Q], in the assay with Natalizumab (parent: est. 80), the response stood at 1000 mAU.
For ACPMNPSKFC [Ntz-01 parent peptide on the Pepscan array E6P], in the assay with Natalizumab (parent: est. 1100), the response was 1500 mAU.
As to ACPKNPSKFC [Ntz-03 parent peptide on the Pepscan array N7S], in the assay with Natalizumab (parent: est. 60), the response came to 2300 mAU.
Consider ACPKNPSKFC [Ntz-02 parent peptide on the Pepscan array S4K], for which the response with Natalizumab (parent: est. 80) worked out at 1900 mAU.
